Results on one molecule are retold here after paper PMC9131899 (Blood Advances, 2022).

The target in the assay is T1, high molecular weight kininogen (HK), purified protein used in ELISA (human, UniProt P01042 19-644).
T1 sequence (looked up): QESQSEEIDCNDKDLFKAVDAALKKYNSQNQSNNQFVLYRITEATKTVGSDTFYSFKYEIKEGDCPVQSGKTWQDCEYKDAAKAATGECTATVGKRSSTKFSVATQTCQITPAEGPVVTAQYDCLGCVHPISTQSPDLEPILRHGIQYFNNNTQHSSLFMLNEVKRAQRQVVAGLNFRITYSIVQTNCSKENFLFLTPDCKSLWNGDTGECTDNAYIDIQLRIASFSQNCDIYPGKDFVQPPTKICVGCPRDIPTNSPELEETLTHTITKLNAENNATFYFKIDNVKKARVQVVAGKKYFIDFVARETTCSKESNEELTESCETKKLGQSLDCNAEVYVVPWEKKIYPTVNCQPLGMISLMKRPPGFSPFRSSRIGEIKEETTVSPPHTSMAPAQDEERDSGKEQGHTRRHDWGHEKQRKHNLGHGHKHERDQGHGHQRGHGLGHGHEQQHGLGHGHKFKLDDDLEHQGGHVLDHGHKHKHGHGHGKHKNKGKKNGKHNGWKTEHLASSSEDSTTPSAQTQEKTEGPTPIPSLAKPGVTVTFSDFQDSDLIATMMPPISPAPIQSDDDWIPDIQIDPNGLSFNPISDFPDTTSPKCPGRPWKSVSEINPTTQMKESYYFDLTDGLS
Nature of the assay: ELISA. A general note: ELISA stands for enzyme-linked immunosorbent assay.

B1: prekallikrein (PK), purified protein used in ELISA (natural protein)
chain: not shown
Turning to B1, the binding result was “binds”.
